From the supplement of paper PMC11246515 come the findings set out here.

± gives the standard deviation of the averaged measurements.

The data set in a line: total protein half-life in vivo (active degradation + dilution); higher = more stable protein.
The mark [1] stands for this setting: E. coli NCM3722 delta-clpP delta-lon delta-hslV, growth: N-lim chemostat, doubling time 6 h.
Where [2] appears, read: E. coli NCM3722 delta-hslV, growth: N-lim chemostat, doubling time 6 h.
Where [3] appears, read: E. coli NCM3722 delta-lon, growth: N-lim chemostat, doubling time 6 h.
The mark [4] stands for this setting: E. coli NCM3722 delta-smpB, growth: N-lim chemostat, doubling time 6 h.
Setting [5] is: wild type E. coli NCM3722, growth: C-lim chemostat, doubling time 3 h.
Setting [6] is: wild type E. coli NCM3722, growth: C-lim chemostat, doubling time 6 h.
Setting [7] is: wild type E. coli NCM3722, growth: C-lim chemostat, doubling time 12 h.
Where [8] appears, read: wild type E. coli NCM3722, growth: N-lim chemostat, doubling time 6 h.
[9] abbreviates: wild type E. coli NCM3722, growth: N-lim chemostat, doubling time 12 h.
[10] abbreviates: wild type E. coli NCM3722, growth: P-lim chemostat, doubling time 6 h.
[11] abbreviates: wild type E. coli NCM3722, growth: P-lim chemostat, doubling time 12 h.
The mark [12] stands for this setting: E. coli NCM3722 delta-clpP, growth: N-lim chemostat, doubling time 6 h.

“MSTLRLLISDSYDPWFNLAVEECIFRQMPATQRVLFLWRNADTVVIGRAQNPWKECNTRRMEEDNVRLARRSSGGGAVFHDLGNTCFTFMAGKPEYDKTISTSIVLNALNALGVSAEASGRNDLVVKTVEGDRKVSGSAYRETKDRGFHHGTLLLNADLSRLANYLNPDKKKLAAKGITSVRSRVTNLTELLPGITHEQVCEAITEAFFAHYGERVEAEIISPNKTPDLPNFAETFARQSSWEWNFGQAPAFSHLLDERFTWGGVELHFDVEKGHITRAQVFTDSLNPAPLEALAGRLQGCLYRADMLQQECEALLVDFPEQEKELRELSAWMAGAVR”: the “total protein half-life in vivo” value is, setting by setting: under setting [1], 4.61 ± 0.64 h; under setting [2], 4.05 ± 0.39 h; under setting [3], 5.74 ± 1.3 h; under setting [4], 4.227 ± 0.0072 h; under setting [5], 2.93 ± 0.24 h; under setting [6], 5.88 ± 0.59 h. Also, the “total protein half-life in vivo” value under setting [7] stood at 11 ± 0.56 h; the “total protein half-life in vivo” value under setting [8] was determined as 4.8 ± 0.4 h; the “total protein half-life in vivo” value under setting [9] is 7.13 ± 0.78 h; the “total protein half-life in vivo” value under setting [10] stood at 5.78 ± 0.2 h; the “total protein half-life in vivo” value under setting [11] was found to be 11.9 ± 0.67 h.

Turning to “MLNIVLYEPEIPPNTGNIIRLCANTGFRLHIIEPMGFAWDDKRLRRAGLDYHEFTAVTRHHDYRAFLEAENPQRLFALTTKGTPAHSAVSYQDGDYLMFGPETRGLPASILDALPAEQKIRIPMVPDSRSMNLSNAVSVVVYEAWRQLGYPGAVLRD [P0AGJ7]”, the “total protein half-life in vivo” value came to 5.27 ± 0.13 h under setting [1]; 5.83 ± 0.49 h under setting [2]; 5.54 ± 0.16 h under setting [3]; 4.82 ± 0.33 h under setting [4]; 2.91 ± 0.35 h under setting [5]; 6.26 h under setting [6]. The “total protein half-life in vivo” value reads like this: under setting [7], 13.8 ± 2.8 h; under setting [8], 5.23 h; under setting [9], 8.21 ± 0.38 h; under setting [10], 5.93 ± 0.22 h; under setting [11], 11.9 ± 0.24 h.

Consider “MKYVDGFVVAVPADKKDAYREMAAKAAPLFKEFGALRIVECWASDVPDGKVTDFRMAVKAEENEEVVFSWIEYPSKEVRDAANQKMMSDPRMKEFGESMPFDGKRMIYGGFESIIDE [P0AAQ6]”, for which the “total protein half-life in vivo” value runs as follows: under setting [1], 4.294 ± 0.022 h; under setting [12], 2.69 ± 0.41 h; under setting [2], 3.26 ± 1.4 h; under setting [3], 3.82 ± 0.1 h; under setting [4], 1.51 ± 0.073 h; under setting [6], 2.63 ± 0.71 h. Also, the “total protein half-life in vivo” value is, setting by setting: under setting [7], 2.54 ± 0.65 h; under setting [8], 2.14 h; under setting [9], 2.62 ± 0.04 h; under setting [10], 3.082 ± 0.03 h; under setting [11], 6.13 ± 0.85 h.

For the sequence “MSSYANHQALAGLTLGKSTDYRDTYDASLLQGVPRSLNRDPLGLKADNLPFHGTDIWTLYELSWLNAKGLPQVAVGHVELDYTSVNLIESKSFKLYLNSFNQTRFNNWDEVRQTLERDLSTCAQGKISVALYRLDELEGQPIGHFNGTCIDDQDITIDNYEFTTDYLENATCGEKVVEETLVSHLLKSNCLITHQPDWGSLQIQYRGRQIDREKLLRYLVSFRHHNEFHEQCVERIFNDLLRFCQPEKLSVYARYTRRGGLDINPWRSNSDFVPSTTRLVRQ”, the “total protein half-life in vivo” value is, setting by setting: under setting [1], 5.36 ± 0.64 h; under setting [12], 5.85 ± 1.8 h; under setting [2], 5 ± 0.28 h; under setting [3], 4.54 ± 0.56 h; under setting [4], 4.09 ± 0.3 h; under setting [5], 2.81 ± 0.26 h. In addition, the “total protein half-life in vivo” value is, setting by setting: under setting [6], 5.542 ± 0.011 h; under setting [7], 8.79 ± 1.1 h; under setting [8], 4.41 ± 0.24 h; under setting [9], 7.06 ± 0.16 h; under setting [10], 5.622 ± 0.049 h; under setting [11], 10.92 ± 0.053 h.

In the case of “MKKIWLALAGLVLAFSASAAQYEDGKQYTTLEKPVAGAPQVLEFFSFFCPHCYQFEEVLHISDNVKKKLPEGVKMTKYHVNFMGGDLGKDLTQAWAVAMALGVEDKVTVPLFEGVQKTQTIRSASDIRDVFINAGIKGEEYDAAWNSFVVKSLVAQQEKAAADVQLRGVPAMFVNGKYQLNPQGMDTSNMDVFVQQYADTVKYLSEKK [P0AEG4]”, the “total protein half-life in vivo” value reads like this: under setting [1], 5.32 ± 0.12 h; under setting [12], 5.05 ± 0.36 h; under setting [2], 6.08 ± 0.13 h; under setting [3], 6.83 ± 0.3 h; under setting [4], 6.24 ± 0.57 h; under setting [5], 3.03 ± 0.28 h. The “total protein half-life in vivo” value reads like this: under setting [6], 5.32 ± 0.28 h; under setting [7], 8.77 ± 2.3 h; under setting [8], 5.73 ± 0.14 h; under setting [9], 11.62 ± 0.096 h; under setting [10], 5.665 ± 0.0088 h; under setting [11], 11.5 ± 1 h.
